Target: PADI4 (peptidyl-arginine deiminase 4), recombinant, dimeric (human) (UniProt Q9UM07)
Assay: BLI

Sequence of PADI4 (peptidyl-arginine deiminase 4), recombinant, dimeric (human) (Q9UM07 whole entry): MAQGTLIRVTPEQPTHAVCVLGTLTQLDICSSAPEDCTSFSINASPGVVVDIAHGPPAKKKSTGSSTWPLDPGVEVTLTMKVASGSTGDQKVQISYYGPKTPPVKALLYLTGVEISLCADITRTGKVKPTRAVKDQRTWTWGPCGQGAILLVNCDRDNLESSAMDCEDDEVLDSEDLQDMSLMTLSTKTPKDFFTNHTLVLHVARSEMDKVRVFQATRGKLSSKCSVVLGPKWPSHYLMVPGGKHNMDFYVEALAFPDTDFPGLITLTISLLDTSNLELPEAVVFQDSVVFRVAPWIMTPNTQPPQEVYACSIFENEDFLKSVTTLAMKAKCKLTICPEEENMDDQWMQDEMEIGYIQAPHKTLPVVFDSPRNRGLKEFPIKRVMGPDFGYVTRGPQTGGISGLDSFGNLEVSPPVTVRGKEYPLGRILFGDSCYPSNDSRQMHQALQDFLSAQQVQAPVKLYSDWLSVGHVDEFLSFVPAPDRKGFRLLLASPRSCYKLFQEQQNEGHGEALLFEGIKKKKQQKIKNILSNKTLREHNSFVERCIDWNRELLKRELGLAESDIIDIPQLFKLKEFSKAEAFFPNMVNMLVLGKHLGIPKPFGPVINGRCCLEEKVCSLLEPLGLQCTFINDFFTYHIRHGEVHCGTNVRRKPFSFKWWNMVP

Kd: 2000 nM
koff: 0.3 s⁻¹
kon: 170000 M⁻¹ s⁻¹
Substance: N-MDM2 derived from GST-tagged N-MDM2, GST-tag removed with thrombin (domain or fragment)

From paper PMC10364586
